Source: patent EP1018344A2

Molecular target: HLA-A2.1 (as the chimeric class I molecule A2.1/K^b on Jurkat A2.1/K^b cells) (human; mouse), A*02:0
Assay: cell-based or functional assay

| inhibition of release of serine esterase from CTL line 219 [%] | Substance |
| --- | --- |
| > 25 | peptide 802.06 (HBc162-176) (from UniProt P03146 162-176) |
| > 25 | peptide 799.10 (HBenv349-368) |
| > 25 | peptide 799.02 (HBenv194-213) (from UniProt P03138 194-213) |
| > 25 | peptide 801.02 (HBenv141-157) (from UniProt P03138 141-157) |
| > 25 | peptide 802.01 (HBc11-27) (from UniProt P03146 11-27) |
| > 25 | peptide 799.04 (HBenv234-253) (from UniProt P03138 234-253) |
| > 25 | peptide 799.08 (HBenv309-328) |
| > 25 | peptide 802.04 (HBc111-125) (from UniProt P03146 111-125) |
| > 25 | peptide 802.03 (HBc91-110) |
| > 25 | peptide 800.05 (HBenv63-77) (from UniProt P03138 63-77) |
| > 25 | peptide 799.09 (HBenv329-348) |
| > 25 | peptide 799.05 (HBenv246-265) (from UniProt P03138 246-265) |
| > 25 | peptide 800.04 (HBenv47-63) (from UniProt P03138 47-63) |
